From patent US20030108935, “Probing binding interactions between molecules and nucleic acids by unzipping a nucleic acid molecule double helix” (published 2003) come the findings set out here.

Series [1] relates to EcoRI restriction endonuclease. Particulars: highest Ka measured in this report; optical-trap unzipping (UFAPA); 10 mM HEPES pH 7.6, 1 mM EDTA, no Mg2+, 106-262 mM Na+, 23 C; Ka decreases with Na+ ….
The target of series [2] is T1, BsoBI restriction endonuclease (UniProt P70985 P70985:2-323).
T1 sequence: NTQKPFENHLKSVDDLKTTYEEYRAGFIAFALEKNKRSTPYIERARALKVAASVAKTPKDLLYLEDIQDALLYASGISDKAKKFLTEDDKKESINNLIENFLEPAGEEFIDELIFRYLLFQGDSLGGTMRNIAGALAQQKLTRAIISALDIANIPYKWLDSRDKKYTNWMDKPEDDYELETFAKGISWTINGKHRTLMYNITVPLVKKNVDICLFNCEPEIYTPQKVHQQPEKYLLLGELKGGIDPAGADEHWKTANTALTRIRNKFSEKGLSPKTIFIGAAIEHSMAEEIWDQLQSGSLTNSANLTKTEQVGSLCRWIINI
Kind of series: optical-trap unzipping, dynamic force spectroscopy: f_beta 4.04 +/- 0.14 pN, ln(toff in s) 4.98 +/- 0.27, N=243; BsoBI 0.7 nM, 50 mM Na phosphate pH 7.0, 50 mM. Particulars: tags: New England BioLabs, commercial grade, used without further purification; chain copies: 2 (stated, 72 kD dimer); label: digoxigenin and biotin (via anchoring segment and insert duplex). How it is done:
(§1) Unzipping Buffer Conditions. Experiments with BsoBI and XhoI were performed at room temperature (23° C.) in a buffer containing 50 mM sodium phosphate buffer pH 7.0, 50 mM NaCl, 0.02% Tween-20, 10 mM EDTA. To facilitate better comparisons of future EcoRI results with previously reported results, mapping and equilibrium constants studies of EcoRI were performed at room temperature (23° C.) in a buffer containing 10 mM HEPES, pH 7.6, 1 mM EDTA, 50 μM DTT, 100 μg/ml BSA, 500 μg/ml Blotting Grade Blocker (Bio-Rad) and NaCl added to produce total Na+concentrations of 106 to 262 mM. […] The Hepes buffer is similar to the buffer used by Ha et al., “Role of the Hydrophobic Effect in Stability of Site-Specific Protein-DNA Complexes,” J. Mol. Biol. 209:801-816 (1989), the entire disclosure of which is hereby incorporated by reference in its entirety, for temperature dependence studies of EcoRI binding to its site on pBR322. Because of the tendency for EcoRI to aggregate at lower ionic strengths (Jen-Jacobson et al., “Coordinate Ion Pair Formation Between EcoRI Endonuclease and DNA,” J. Biol. Chem. 258:14638-14646 (1983), the entire disclosure of which is hereby incorporated by reference in its entirety), the EcoRI mapping data were taken at 131 mM total Na+ concentration. […]

The target of series [3] is T1, BsoBI restriction endonuclease. In words: optical-trap unzipping, dynamic force spectroscopy: f_beta 4.36 +/- 0.53 pN, ln(toff in s) 7.6 +/- 1.1, N=51; BsoBI 0.7 nM, 50 mM Na phosphate pH 7.0, 50 mM NaCl, 10 mM EDTA, no Mg2+, 23 C. The note with it: tags: New England BioLabs, commercial grade, used without further purification; chain copies: 2 (stated, 72 kD dimer); label: digoxigenin and biotin (via anchoring segment and insert duplex). The method, then:
as §1

As for “pBR322 EarI large fragment unzipping segment with single EcoRI site”, the Ka in series [1] stood at 1e+11 M⁻¹.

B1: BsoBI alpha site (dsDNA)
DNA 1: TTCCTCGGGAAT
DNA 2: ATTCCCGAGGAA
For the molecule B1, the binding result in series [2] is recorded as “binds”.

B2: beta site (BsoBI/XhoI) (dsDNA)
DNA 1: AAACTCGAGAGA
DNA 2: TCTCTCGAGTTT
Turning to B2, in series [3], the binding result is “binds”.
